The nature of series [1]: Guaiacol oxidation (laccase kinetics, optimum temperature and pH). Format: biochemical. The conditions noted are these: guaiacol as substrate. The procedure:
(§1) The effect of temperature on laccase activity was studied using the standard enzymatic activity assay described above under various reaction temperatures (i.e., 20-80° C.). For thermal stability study, the enzyme was pre-incubated in a 50 mM citric acid buffer (pH 3.0) at 50-80° C. for 0-180 min and the residual enzymatic activity was then determined.
(§2) The effect of pH on the laccase activity was investigated at a pH range of 2.5-6.0. Four buffer systems were used in this study: 50 mM glycine-HCl buffer (pH 2.5), 50 mM citric acid buffer (pH 3.0-5.5), 50 mM sodium phosphate buffer (pH 6.0-8.0), and 50 mM glycine-NaOH buffer (pH 9.0-10). To determine the protein stability of laccase at a wide range of pH conditions, the enzyme (0.1 mg/mL in each reaction) was pre-incubated at pH 3.0-10 at 25° C. for 0-5 days and then the residual enzyme activity was determined.
(§3) Kinetic parameters Km and Vmax were determined as follows. […] The oxidation reactions of guaiacol and 2,6-DMP were monitored by determining OD436 values (ε=6,400 M^−1cm^−1) and OD468 values (ε=49,600 M^−1 cm^−1), respectively. The kinetic parameters were determined by nonlinear regression analysis (ENZFITTER software program, Elsevier-Biosoft, Cambridge, UK) using the Michaelis-Menten model.
(§4) To determine the effect of temperature on the enzyme activity, a standard enzymatic activity assay was performed under various temperatures (i.e., 30-90° C.). For thermal stability study, laccase was pre-incubated in a 50 mM citric acid buffer (pH 3.0) at 30-80° C. for 10-40 min and the residual enzymatic activity was then determined by the standard assay. See Example 1 above. Values of t1/2 were determined accordingly.
(§5) The effect of pH on laccase activity was investigated at pH 2.0-6.0, using a glycine-HCl buffer (pH 2.0-2.5) or a citric acid buffer (pH 2.5-6.0). To determine protein stability in different pH conditions, the enzyme was pre-incubated at pH 2.5-4.5 at 25° C. for 0-2 h and the residual enzyme activity was determined by the standard enzymatic assay.
(§6) Kinetic parameters were determined following conventional methods. See also Example 1 above.

Series [2] in a line: ABTS oxidation assay (laccase activity, kinetics, effect of temperature and pH). Format: biochemical. On the procedure:
All chemicals used in this study were obtained from Merck (Darmstadt, Germany) or Sigma-Aldrich (St. Louis, Mo. USA). All spectrophotometric measurements were performed using the Beckman DU 640 spectrophotometer (Beckman Coulter, USA).
as §1, §2, §3, §4, §5, §6

Series [3] in a line: Thermal stability: residual enzymatic activity after pre-incubation (t1/2). Format: physicochemical. Particulars: for t1/2: 50 mM citric acid buffer pH 3.0. On the procedure:
as §1
To test thermal stability, the enzyme was kept at various temperatures (50-80° C.) for 10-40 min and the remaining enzymatic activity was determined using the standard activity assay.
as §4

A further series is described as follows: RBBR dye decoloration. Particulars: 0.02% RBBR, 8 U enzyme, 20° C., 1 h, pH 3.0. The procedure: Dye decoloration reaction was performed by mixing a partially purified laccase broth (containing 8 U enzyme) with a 1 ml reaction buffer (50 mM citric acid solution; pH 3.0) containing 0.02% RBBR (Sigma). The mixture was incubated at 20° C. for 1 h. Dye decoloration was determined by monitoring the change in absorbance at 595 nm and the dye decoloration efficiency (%) was defined as the relative amount of dye reduced after the treatment.
The lignin degradation reaction and the dye decoloration reaction were carried out following the methods described in Example 1 above. […] See FIG. 9, pane A. The lignin degradation efficiencies were 22%-25% at 40-50° C. for 40 min and 32% at 40° C. for 60 min.

A short description of series [4]: Laccase stability on extended incubation with ethanol or methanol. The conditions noted are these: room temperature, pH 6.0. Format: physicochemical. The procedure:
To examine the effect of ethanol on Cerrena sp. WR1 laccase stability, the enzyme was incubated in a 50 mM sodium phosphate buffer (pH 6.0) containing 1%, 10%, or 25% ethanol at room temperature for up to 52 days and the residual enzyme activity was measured at different time points during incubation. A T. versicolor laccase (LccTv) was used as a reference enzyme. […] Differently, Lcc3 retained around 90% activity after being incubated with 25% ethanol for 10 days and retained approximately 50% enzymatic activity after a 40-day incubation period. This enzyme also retained about 50% enzymatic activity after a 45-day incubation period with 10% ethanol and a 40-day incubation without ethanol.
The laccase stability after incubation with methanol or ethanol for an extended period was further investigated. […] The enzyme activity of the Lentinus sp. laccase maintained as 95% in 25% ethanol while that of the reference laccase reduced to 41%.

B1: Lcc3: laccase purified from Cerrena sp. WR1, GenBank accession no. GQ899203; SEQ ID NO:3 mature, 9 precursor (protein)
chain: AIGPVADLHITDANVSPDGFTRPAVLAGGTFPGPLITGKQGDNFQINVIDELTDATMLKSTSIHWHGIFQKGTNWADGPSFVNQCPITTGNSFLYDFSVPDQTGTYWYHSHLSTQYCDGLRGALVIYDDNDPHKDLYDVDDETTVITLADWYHTQARLITGVPVSDATLINGLGRYLNGPTDAPLAVITVDQGKRYRFRLVSISCDPNFVFSIDNHSMTVIEVDAVNSQPLVVDSIQIFAAQRYSFILNANQSVGNYWIRANPNLGNTGFTNGINSAILRYNGAPVAEPNTTQTASTNPLNEVNLHPLVPTPVPGTPQPGGVDVVQNLVLGFSGGKFTINGVAFSPPTVPVLLQILSGTTTAQDLLPTGSIIELPLGKTVELTLAAGVLGGPHPFHLHGHTFHVVRSAGQTTPNYVDPILRDTVNTGAAGDNVTIRFTTDNPGPWFLHCHIDWHLEAGFAVVFAEGLNQTNAANPTPDAWNNLCDLYNALPAGDQ
modifications: Cerrena sp
On to B1, for which the values for the optimal temperature in series [1] and in series [2] (ABTS as substrate) were 70 °C and 50 °C, respectively. Further, the “pH of maximal activity” value is 4.5 in series [1] and 3.0 in series [2] (ABTS as substrate). Also, the Optimum temperature in series [1] (at pH 4.5) was 70 (at pH 4.5) ° C; in series [2] (ABTS as substrate, at pH 3.0) it was 50 (at pH 3.0) ° C. The Specific activity was found to be 189.7 U/mg in series [1] (optimum temperature and pH); 1013.5 U/mg in series [2] (ABTS as substrate, optimum temperature and pH). For the same molecule, the “specific activity of the purified laccase” value in series [2] (at 30° C. and pH 3.0, ABTS) is 2,159.6 U/mg. Also, the “t1/2 at room temperature” value in series [3] (25° C., 50 mM sodium phosphate buffer (pH 6.0)) came to 40 days. The t1/2 is given as 120 min in series [3] (at 50° C.); 40 min in series [3] (at 60° C.); 7.5 min in series [3] (at 70° C.); 8 min in series [3] (at 70° C., listed as Cerrena sp. WR1). In the series “RBBR dye decoloration”, the “decoloration efficiency against RBBR” value was determined as 70.1%. Also, the activity retained result is “about 61%” in series [4] (1% ethanol, 52-day incubation); “approximately 50%” in series [4] (10% ethanol, 45-day incubation); “approximately 50%” in series [4] (25% ethanol, 40-day incubation); “around 90%” in series [4] (25% ethanol, 10 days); “approximately 50%” in series [4] (without ethanol, 40-day incubation).
